Values of other authors as cited in publication PMC4599702.

Columns and labels:
CBP KIX (Homo sapiens) = CBP KIX (Homo sapiens) (UniProt Q92793)
p300 KIX (Homo sapiens) = p300 KIX (Homo sapiens) (UniProt Q09472); assay: microscale thermophoresis
Sequence of UniProt Q09472 (Q09472 563-648): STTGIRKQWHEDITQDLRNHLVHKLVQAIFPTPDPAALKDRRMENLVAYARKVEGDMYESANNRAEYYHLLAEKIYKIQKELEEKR

Sequence of UniProt Q92793 (Q92793 584-669): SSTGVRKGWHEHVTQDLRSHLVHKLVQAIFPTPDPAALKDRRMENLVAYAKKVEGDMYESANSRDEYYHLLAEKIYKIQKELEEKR

Kd (CBP KIX (Homo sapiens)): 0.65 µM | Kd (p300 KIX (Homo sapiens)): 2.5 µM
Substance: Myb (from UniProt P10242)
